Here are results for three substances from PMC2115704.

Holding throughout (assay): SDS-PAGE in the absence of reductant
Test [1] concerns the target endogenous COS-1 cell TSP (African green monkey (endogenous in COS-1)).
For test [2], the target named is truncated TSP protein Pro449 (human).
Test [3] deals with truncated TSP protein Val333 (human).

truncated TSP protein Val333 (domain or fragment), sequence (P07996 374-552): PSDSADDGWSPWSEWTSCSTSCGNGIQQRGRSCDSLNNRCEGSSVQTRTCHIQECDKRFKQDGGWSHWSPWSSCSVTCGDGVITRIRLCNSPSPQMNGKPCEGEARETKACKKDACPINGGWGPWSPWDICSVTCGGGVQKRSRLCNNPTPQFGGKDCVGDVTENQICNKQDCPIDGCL
truncated TSP protein Pro449 (domain or fragment), sequence (P07996 374-552): as above

In general, stoichiometry N refers to a count of units in the complex or per binding partner. On to “endogenous COS-1 cell TSP (natural protein)”, for which the stoichiometry N in test [1] stood at 3.
For “truncated TSP protein Pro449 (domain or fragment)”, the stoichiometry N in test [2] turned out to be 3.
Substance “truncated TSP protein Val333 (domain or fragment)” came in with a stoichiometry N in test [3] of 3.
